For the assay, the target named is human purified platelet factor 4/CXCL4 (human). The assay can be described thus: cell attachment assay; αvβ3-CHO and mock-transfected CHO cells plated on microtiter wells coated with CXCL4 or CXCL4/CTF at the indicated concentrations; 60 min at 37°C in serum-free medium with 0.5% BSA; attached cells stained with Coomassie blue, absorbance at 620 nm; also with 0.25 mM Mn2+ or 2 mM Mg2+.

“human αvβ3 integrin on CHO cells (αvβ3-CHO, clone A06) (from UniProt P06756 31-1048; P05106 27-788) (receptor)” displayed an increase of cell attachment with Mn2+ or Mg2+ against no added cation of 25%.

(Values after publication PMC2481302.)
